Common to all, as to assay: two-hybrid library CCNG1;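 also: natural log of median RNA to DNA barcode read ratio; higher means stronger binding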
For one assay, the target named is T1, 4H1710-bH.
T1 chain: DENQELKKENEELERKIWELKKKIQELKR

In another assay the target is T2, 4H1544-bH.
T2 chain: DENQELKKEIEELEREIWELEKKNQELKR

The next assay concerns the target T3, 4H3172-bH.
T3 chain: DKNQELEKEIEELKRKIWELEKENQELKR

The next assay concerns the target T4, 4H906-bH.
T4 chain: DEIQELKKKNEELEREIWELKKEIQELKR

For the next assay, the target named is T5, 4H3631-bH.
T5 chain: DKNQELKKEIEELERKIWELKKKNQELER

In the next assay the target is T6, 4H3974-bH.
T6 chain: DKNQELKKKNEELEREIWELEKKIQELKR

The next assay addresses T7, 4H1804-bH.
T7 chain: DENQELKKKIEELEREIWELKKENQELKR

The next assay addresses T8, 4H3129-bH.
T8 chain: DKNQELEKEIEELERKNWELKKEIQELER

The next assay has as its target T9, 4H3638-bH.
T9 chain: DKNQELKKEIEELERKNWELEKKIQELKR

For another assay, the target named is T10, 4H1899-bH.
T10 chain: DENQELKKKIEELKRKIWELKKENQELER

For a further assay, the target named is T11, 4H1985-bH.
T11 chain: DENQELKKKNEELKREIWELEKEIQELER

The next assay addresses T12, 4H3414-bH.
T12 chain: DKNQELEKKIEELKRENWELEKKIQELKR

The next assay has as its target T13, 4H850-bH.
T13 chain: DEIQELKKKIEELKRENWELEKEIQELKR

In another assay the target is T14, 4H3613-bH.
T14 chain: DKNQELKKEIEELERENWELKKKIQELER

In another assay the target is T15, 4H570-bH.
T15 chain: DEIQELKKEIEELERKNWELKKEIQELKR

The target of another assay is T16, 4H1629-bH.
T16 chain: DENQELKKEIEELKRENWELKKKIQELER

The target of the next assay is T17, 4H619-bH.
T17 chain: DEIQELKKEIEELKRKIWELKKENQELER

The target in another assay is T18, 4H3592-bA.
T18 chain: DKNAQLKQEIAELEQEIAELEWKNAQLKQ

Another assay addresses T19, 4H3858-bH.
T19 chain: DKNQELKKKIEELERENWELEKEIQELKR

In a further assay the target is T20, 4H584-bH.
T20 chain: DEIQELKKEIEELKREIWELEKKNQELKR

The target of the next assay is T21, 4H3628-bH.
T21 chain: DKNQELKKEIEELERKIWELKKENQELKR

The target in the next assay is T22, 4H1449-bH.
T22 chain: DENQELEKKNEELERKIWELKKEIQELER

For the next assay, the target named is T23, 4H3817-bH.
T23 chain: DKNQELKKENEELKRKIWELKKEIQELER

In the next assay the target is T24, O6-bP.
T24 chain: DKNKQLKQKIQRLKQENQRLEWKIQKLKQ

In another assay the target is T25, 4H496-bA.
T25 chain: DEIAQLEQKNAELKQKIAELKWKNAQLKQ

The next assay deals with T26, P8A-bH.
T26 chain: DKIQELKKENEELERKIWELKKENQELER

Consider DENQELEKKNEELERKIWELKKEIQELER [4H1449-bH], for which the interaction score was -0.366 with 4H1710-bH; -0.787 with 4H1544-bH; -0.0351 in the assay with 4H3172-bH; -1.2 in the assay with 4H906-bH; 0.733 with 4H3631-bH; 1.15 with 4H3974-bH. Moreover, the interaction score is -0.461 in the assay with 4H1804-bH; -0.319 with 4H3129-bH; -0.0745 with 4H3638-bH; -0.126 with 4H1899-bH; -0.843 with 4H1985-bH; -0.216 with 4H3414-bH. Further, the interaction score was -0.674 with 4H850-bH; -0.131 with 4H3613-bH; -0.108 in the assay with 4H570-bH; -0.891 with 4H1629-bH; -2.2 with 4H619-bH; -0.126 in the assay with 4H3592-bA. Also, the interaction score is -0.658 with 4H3858-bH; -0.0853 with 4H584-bH; -0.479 with 4H3628-bH; -1.25 with 4H1449-bH; -0.644 with 4H3817-bH.
For DENQELKKEIEELKRENWELKKKIQELER [4H1629-bH], the interaction score in the assay with 4H1710-bH is -2.67; with 4H3172-bH, -0.534; with 4H906-bH it was -0.794; with 4H3631-bH, -0.299; with 4H3974-bH, 0.236; with O6-bP it was 1.7. For the same molecule, the interaction score is -1.81 with 4H1804-bH; -0.581 in the assay with 4H3129-bH; -1.09 with 4H3638-bH; -2.88 with 4H496-bA; -0.16 with 4H1985-bH; -1.1 with 4H3414-bH. Also, the interaction score with 4H850-bH was 1.03; in the assay with 4H570-bH, -1.69; with 4H1629-bH it was -0.954; in the assay with 4H619-bH, 0.577; in the assay with 4H584-bH, 0.366; with P8A-bH it was 0.887. The molecule further registered an interaction score in the assay with 4H3817-bH of -0.618.

(Values after paper PMC10397247.)
